Measurements: US20020055173, “Method for preparing adenovirus vectors, vectors so prepared, and uses thereof” (published 2002)

Legend:
MAZ [1] = biological target: T1, MAZ (UniProt P56270 P56270:1-477); assay: footprint; interaction substantially blocked; settings: tags: prepared as in Parks and Shenk 1996; label: 5' end label in luciferase coding region
T1 sequence: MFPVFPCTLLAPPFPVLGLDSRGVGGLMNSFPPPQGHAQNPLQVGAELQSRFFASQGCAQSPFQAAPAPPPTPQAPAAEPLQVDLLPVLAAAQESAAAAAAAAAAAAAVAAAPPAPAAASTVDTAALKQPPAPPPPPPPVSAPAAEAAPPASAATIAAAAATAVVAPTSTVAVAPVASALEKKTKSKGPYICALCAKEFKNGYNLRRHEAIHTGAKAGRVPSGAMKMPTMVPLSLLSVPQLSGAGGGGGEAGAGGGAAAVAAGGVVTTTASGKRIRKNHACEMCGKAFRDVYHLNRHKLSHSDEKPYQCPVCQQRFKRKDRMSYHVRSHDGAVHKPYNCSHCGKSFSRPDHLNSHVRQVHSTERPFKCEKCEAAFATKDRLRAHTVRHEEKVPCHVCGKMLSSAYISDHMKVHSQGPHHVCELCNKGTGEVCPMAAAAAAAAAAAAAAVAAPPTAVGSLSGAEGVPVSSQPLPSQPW

Sp1 [2] = biological target: T2, Sp1 (UniProt P08047 P08047:2-785); assay: footprint; interaction substantially blocked; settings: tags: Promega; label: 5' end label in luciferase coding region
T2 sequence (P08047 2-785, one chain of several): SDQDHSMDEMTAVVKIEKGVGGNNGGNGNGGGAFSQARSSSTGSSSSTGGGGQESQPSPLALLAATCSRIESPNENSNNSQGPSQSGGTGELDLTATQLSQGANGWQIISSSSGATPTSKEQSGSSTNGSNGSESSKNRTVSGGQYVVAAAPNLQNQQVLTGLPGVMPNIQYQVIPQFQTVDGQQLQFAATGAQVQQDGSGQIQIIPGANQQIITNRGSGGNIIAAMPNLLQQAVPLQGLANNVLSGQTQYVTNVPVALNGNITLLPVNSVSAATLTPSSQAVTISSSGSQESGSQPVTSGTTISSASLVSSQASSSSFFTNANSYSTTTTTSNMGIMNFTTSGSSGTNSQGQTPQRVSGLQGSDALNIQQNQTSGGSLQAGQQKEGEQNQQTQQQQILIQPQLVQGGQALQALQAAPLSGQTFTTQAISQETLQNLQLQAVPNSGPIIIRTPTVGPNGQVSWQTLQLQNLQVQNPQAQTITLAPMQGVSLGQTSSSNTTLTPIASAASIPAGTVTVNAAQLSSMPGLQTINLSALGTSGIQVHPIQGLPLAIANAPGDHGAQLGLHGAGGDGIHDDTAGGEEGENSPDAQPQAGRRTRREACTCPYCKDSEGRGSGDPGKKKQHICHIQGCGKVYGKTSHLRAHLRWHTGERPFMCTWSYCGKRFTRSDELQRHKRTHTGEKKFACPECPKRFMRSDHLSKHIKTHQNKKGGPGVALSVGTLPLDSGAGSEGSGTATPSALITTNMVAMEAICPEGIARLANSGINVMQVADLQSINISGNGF

Sp1 [3] = biological target: T2, Sp1; assay: footprint; one Sp1 site (-18GC); settings: tags: Promega; label: 5' end label in luciferase coding region
MAZ [4] = biological target: T1, MAZ; assay: footprint; two MAZ sites; settings: tags: prepared as in Parks and Shenk 1996; label: 5' end label in luciferase coding region
Sp1 [5] = biological target: T2, Sp1; assay: footprint; Sp1 footprint not altered; settings: tags: Promega; label: 5' end label in luciferase coding region
Sp1 [6] = biological target: T2, Sp1; assay: footprint; interaction completely blocked; settings: tags: Promega; label: 5' end label in luciferase coding region

B1: minimal MLP M3 (-18GC and -36GC mutant) (dsDNA)
DNA 1: TGTTGTTGTTCTATAAAAGTGTGTGTGTGTGCGTTCGTCCTCACTCTCTTCC
DNA 2: GGAAGAGAGTGAGGACGAACGCACACACACACACTTTTATAGAACAACAACA
- binding result (MAZ [1]): no binding
- binding result (Sp1 [2]): no binding

B2: minimal MLP wild type (dsDNA)
DNA 1: TGAAGGGGGGCTATAAAAGGGGGTGGGGGCGCGTTCGTCCTCACTCTCTTCC
DNA 2: GGAAGAGAGTGAGGACGAACGCGCCCCCACCCCCTTTTATAGCCCCCCTTCA
- binding result (Sp1 [3]): binds
- binding result (MAZ [4]): binds

B3: minimal MLP M2 (-36GC mutant) (dsDNA)
DNA 1: TGTTGTTGTTCTATAAAAGGGGGTGGGGGCGCGTTCGTCCTCACTCTCTTCC
DNA 2: GGAAGAGAGTGAGGACGAACGCGCCCCCACCCCCTTTTATAGAACAACAACA
- binding result (Sp1 [5]): binds

B4: minimal MLP M1 (-18GC mutant) (dsDNA)
DNA 1: TGAAGGGGGGCTATAAAAGTGTGTGTGTGTGTGTTCGTCCTCACTCTCTTCC
DNA 2: GGAAGAGAGTGAGGACGAACACACACACACACACTTTTATAGCCCCCCTTCA
- binding result (Sp1 [6]): no binding
